From patent publication US6403087 (Biogen, dated 2002)

Legend:
Assay in all cases: cell-based or functional assay
hTNF = hTNF (human, UniProt P01375 77-233)
hLT-α = target: T1, hLT-α (human, UniProt P01374 35-205, limits assumed)
T1 sequence (looked up): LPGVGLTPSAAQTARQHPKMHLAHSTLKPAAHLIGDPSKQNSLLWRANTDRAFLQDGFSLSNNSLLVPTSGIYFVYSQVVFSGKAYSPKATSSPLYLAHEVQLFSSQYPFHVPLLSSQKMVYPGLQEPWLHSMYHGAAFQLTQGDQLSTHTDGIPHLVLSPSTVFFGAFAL

[1] = target: T2, soluble human LT-α1/β2 ligand (hLT-α1/β2) (human, UniProt P01374 35-205; Q06643 49-244, limits assumed)
T2 sequence (looked up) 1: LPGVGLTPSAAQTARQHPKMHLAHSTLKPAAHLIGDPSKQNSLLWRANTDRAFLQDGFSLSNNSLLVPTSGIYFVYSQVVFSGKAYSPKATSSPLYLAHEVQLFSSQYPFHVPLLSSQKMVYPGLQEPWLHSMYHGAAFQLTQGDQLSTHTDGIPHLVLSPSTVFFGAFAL
T2 sequence (looked up) 2: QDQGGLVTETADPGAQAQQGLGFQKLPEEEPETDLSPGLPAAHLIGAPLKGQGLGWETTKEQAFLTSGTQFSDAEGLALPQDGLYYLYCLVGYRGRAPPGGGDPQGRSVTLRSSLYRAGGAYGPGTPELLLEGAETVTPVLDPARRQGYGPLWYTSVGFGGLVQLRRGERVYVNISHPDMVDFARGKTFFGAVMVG

Sequence of hTNF (P01375 77-233 limits assumed): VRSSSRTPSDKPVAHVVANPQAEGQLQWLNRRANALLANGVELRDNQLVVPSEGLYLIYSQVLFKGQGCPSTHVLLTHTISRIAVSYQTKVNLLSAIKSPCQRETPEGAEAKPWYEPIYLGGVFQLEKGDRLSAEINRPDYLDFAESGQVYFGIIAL

B1: soluble human LT-β receptor-immunoglobulin Fc fusion protein (hLT-β-R-Fc) (Fc fusion, not shown: a dimerising Fc or GST)
chain: QAVPPYASENQTCRDQEKEYYEPQHRICCSRCPPGTYVSAKCSRIRDTVCATCAENSYNEHWNYLTICQLCRPCDPVMGLEEIAPCTSKRKTQCRCQPGMFCAAWALECTHCELLSDCPPGTEAELKDEVGKGNNHCVPCKAGHFQNTSSPSARCQPHTRCENQGLVEAAPGTAQSDTTCKNPLEPLPPEMSGT
Concentration of Cytotoxic Agent (ng/ml) Resulting in 50% Growth Inhibition of HT29 cells, in the presence of 5 µg/ml LT-β-R-Fc (hTNF): 0.08 ng/mL
Concentration of Cytotoxic Agent (ng/ml) Resulting in 50% Growth Inhibition of HT29 cells, in the presence of 5 µg/ml LT-β-R-Fc (hLT-α): 3 ng/mL
Concentration of Cytotoxic Agent (ng/ml) Resulting in 50% Growth Inhibition of HT29 cells, in the presence of 5 µg/ml LT-β-R-Fc [1]: > 200 ng/mL

B2: soluble TNF-R fusion protein (p55-TNF-R-Fc) (Fc fusion, UniProt P19438 30-211, looked up, not shown: a dimerising Fc or GST)
chain: LVPHLGDREKRDSVCPQGKYIHPQNNSICCTKCHKGTYLYNDCPGPGQDTDCRECESGSFTASENHLRHCLSCSKCRKEMGQVEISSCTVDRDTVCGCRKNQYRHYWSENLFQCFNCSLCLNGTVHLSCQEKQNTVCTCHAGFFLRENECVSCSNCKKSLECTKLCLPQIENVKGTEDSGTT
Concentration of Cytotoxic Agent (ng/ml) Resulting in 50% Growth Inhibition of HT29 cells, in the presence of 5 µg/ml p55-TNF-R-Fc (hLT-α): > 1000 ng/mL
Concentration of Cytotoxic Agent (ng/ml) Resulting in 50% Growth Inhibition of HT29 cells, in the presence of 5 µg/ml p55-TNF-R-Fc [1]: 5 ng/mL
